The nature of the data set: CPT-11 conversion to SN-38, fluorescent HPLC detection, conditioned media of transiently expressed BChE variants. It counts as biochemical. Conditions: for Fold improvement in CPT-11 conversion: compared to wild-type butyrylcholinesterase, conditioned media exposed to 20 mM CPT-11 for 72 hours at 37° C., SN-38 by HPLC, conservative values; for CPT-11 conversion to SN-38 (SN-38 formation by HPLC), in words: conditioned media, 20 mM CPT-11, 72 hours, 37° C., versus mock / wild-type. The method, then:
Butyrylcholinesterase variants were assayed for CPT-11 conversion activity using fluorescent High Performance Liquid Chromotography (HPLC) detection of SN-38 formation as described in Dodds and Rivory, Mol. Pharmacol. 56: 1346-1353 (1999), which is incorporated herein by reference. Briefly, conditioned media from transiently expressed BChE variants were exposed to 20 mM CPT-11 for 72 hours at 37° C. and analyzed by HPLC for SN-38 formation (peak at about 4 minutes column retention time).

Entries after “also recorded” stand apart in the source; their conditions may differ.

For the molecule F227A/L286H, the “Fold improvement in CPT-11 conversion” value is on record as >35 fold and the “CPT-11 conversion to SN-38 (SN-38 formation by HPLC), in words” value (from here on “CPT-11 conversion … in words”) was “increased CPT-11 conversion to SN-38”.
Take F227A/L286S: the “Fold improvement in CPT-11 conversion” value is >50 fold and the “CPT-11 conversion … in words” value was “significant conversion; also recorded: increased CPT-11 conversion to SN-38”. The “Fold improvement in CPT-11 conversion” value (listed as F227A/L268S) was ≥ 50 fold.

B1: F227A (protein)
chain: EDDIIIATKNGKVRGMNLTVFGGTVTAFLGIPYAQPPLGRLRFKKPQSLTKWSDIWNATKYANSCCQNIDQSFPGFHGSEMWNPNTDLSEDCLYLNVWIPAPKPKNATVLIWIYGGGFQTGTSSLHVYDGKFLARVERVIVVSMNYRVGALGFLALPGNPEAPGNMGLFDQQLALQWVQKNIAAFGGNPKSVTLFGESAGAASVSLHLLSPGSHSLFTRAILQSGSXNAPWAVTSLYEARNRTLNLAKLTGCSRENETEIIKCLRNKDPQEILLNEAFVVPYGTPLSVNFGPTVDGDFLTDMPDILLELGQFKKTQILVGVNKDEGTAFLVYGAPGFSKDNNSIITRKEFQEGLKIFFPGVSEFGKESILFHYTDWVDDQRPENYREALGDVVGDYNFICPALEFTKKFSEWGNNAFFYYFEHRSSKLPWPEWMGVMHGYEIEFVFGLPLERRDNYTKAEEILSRSIVKRWANFAKYGNPNETQNNSTSWPVFKSTEQKYLTLNTESTRIMTKLRAQQCRFWTSFFPKVLEMTGNIDEAEWEWKAGFHRWNNYMMDWKNQFNDYTSKKESCVGL
modifications: synthetic butyrylcholinesterase variant; VARIANT 227: Xaa = Ala
As for B1, the “CPT-11 conversion … in words” value is given as “produced a small amount of SN-38; also recorded: increased CPT-11 conversion to SN-38”.

B2: F227A/T284A (protein)
chain: EDDIIIATKNGKVRGMNLTVFGGTVTAFLGIPYAQPPLGRLRFKKPQSLTKWSDIWNATKYANSCCQNIDQSFPGFHGSEMWNPNTDLSEDCLYLNVWIPAPKPKNATVLIWIYGGGFQTGTSSLHVYDGKFLARVERVIVVSMNYRVGALGFLALPGNPEAPGNMGLFDQQLALQWVQKNIAAFGGNPKSVTLFGESAGAASVSLHLLSPGSHSLFTRAILQSGSXNAPWAVTSLYEARNRTLNLAKLTGCSRENETEIIKCLRNKDPQEILLNEAFVVPYGXPLSVNFGPTVDGDFLTDMPDILLELGQFKKTQILVGVNKDEGTAFLVYGAPGFSKDNNSIITRKEFQEGLKIFFPGVSEFGKESILFHYTDWVDDQRPENYREALGDVVGDYNFICPALEFTKKFSEWGNNAFFYYFEHRSSKLPWPEWMGVMHGYEIEFVFGLPLERRDNYTKAEEILSRSIVKRWANFAKYGNPNETQNNSTSWPVFKSTEQKYLTLNTESTRIMTKLRAQQCRFWTSFFPKVLEMTGNIDEAEWEWKAGFHRWNNYMMDWKNQFNDYTSKKESCVGL
modifications: synthetic butyrylcholinesterase variant; VARIANT 227: Xaa = Ala; VARIANT 284: Xaa = Ala
Turning to B2, the “Fold improvement in CPT-11 conversion” value is >7 fold and the “CPT-11 conversion … in words” value was “increased CPT-11 conversion to SN-38”.

B3: F227A/L286W (protein)
chain: EDDIIIATKNGKVRGMNLTVFGGTVTAFLGIPYAQPPLGRLRFKKPQSLTKWSDIWNATKYANSCCQNIDQSFPGFHGSEMWNPNTDLSEDCLYLNVWIPAPKPKNATVLIWIYGGGFQTGTSSLHVYDGKFLARVERVIVVSMNYRVGALGFLALPGNPEAPGNMGLFDQQLALQWVQKNIAAFGGNPKSVTLFGESAGAASVSLHLLSPGSHSLFTRAILQSGSANAPWAVTSLYEARNRTLNLAKLTGCSRENETEIIKCLRNKDPQEILLNEAFVVPYGTPWSVNFGPTVDGDFLTDMPDILLELGQFKKTQILVGVNKDEGTAFLVYGAPGFSKDNNSIITRKEFQEGLKIFFPGVSEFGKESILFHYTDWVDDQRPENYREALGDVVGDYNFICPALEFTKKFSEWGNNAFFYYFEHRSSKLPWPEWMGVMHGYEIEFVFGLPLERRDNYTKAEEILSRSIVKRWANFAKYGNPNETQNNSTSWPVFKSTEQKYLTLNTESTRIMTKLRAQQCRFWTSFFPKVLEMTGNIDEAEWEWKAGFHRWNNYMMDWKNQFNDYTSKKESCVGL
modifications: synthetic butyrylcholinesterase variant
With B3, the “Fold improvement in CPT-11 conversion” value was >42 fold and the “CPT-11 conversion … in words” value is listed as “increased CPT-11 conversion to SN-38”.
